In PMC2978097 (2010) one finds Kd data, which are given here for 1 molecule.

For the assay, the target named is α-synuclein (Homo sapiens, UniProt P37840). Nature of the assay: fluorescence anisotropy.

For orientation: Kd means the equilibrium constant for the complex coming apart. Higher therefore signals lower affinity. Take GVLWVGSKTR [Y39W β-syn 36D]: the Kd was ~1000 nM.
